Columns and labels:
[1] = HT29 xenograft, bevacizumab-awwb concentration in excised tumors (HPLC); type: in vivo, athymic nude mice; conditions: Day 3
Procedure: A non-GLP study was conducted (Metis Labs, Ronkonkoma, NY, USA) using Imagent microbubbles, a human monoclonal antibody and ultrasound with a TE7 and P4-2S probe (Mindray North America, New Jersey, USA); settings used were 2.2 MHz frequency, 0.35 and 0.70 mechanical indexes (MI) during insonation, once every 10 seconds, a microbubble destruct pulse of 1.3 MI lasting 1,100 milliseconds was applied. Total insonation time of 5 minutes per animal was used. Imagent was conjugated with bevacizumab-awwb (Mvasi®, Amgen, Thousand Oaks, CA, USA) (“eBev”) in HT29 human colorectal carcinoma model.
Thirty-six athymic nude mice (The Jackson Laboratory, Bar Harbor, ME, USA) were randomized into 9 groups of 4 mice and once tumor volumes reached ~200 mm^3, the mice were treated once on day 1. Animals were euthanized on Day 3. The bevacizumab-awwb (either eBev or free bevacizumab-awwb) dose was 100 μL of either a 25:1, 50:1, or 5:1 dilution, depending on the experimental arm, via intravenous administration (i.v.) via jugular vein catheter (Instech One Channel Mouse Button, Instech, Plymouth Meeting, PA, USA). […]

[2] = patients, package insert; cited from earlier work
[3] = in the human body; cited from earlier work
[4] = cited from earlier work

bevacizumab-awwb: bevacizumab-awwb (Mvasi, Amgen), human monoclonal antibody
mean concentration of bevacizumab-awwb as measured in the tumors ([1]; Group 2: free bevacizumab-awwb only, 25:1 dilution, i.v.): around 3 μg
mean concentration of bevacizumab-awwb as measured in the tumors ([1]; Groups 3a-3d: free bevacizumab-awwb 25:1 co-administered with Imagent microbubbles + ultrasound): around 3 μg

Avastin: recombinant humanized monoclonal IgG1 antibody, vascular endothelial growth factor inhibitor
Grade 3-5 hemorrhagic events [2]: 0.4-7.0%
Grades 3-4 hypertension [2]: 5-18%
Grades 3-5 Arterial Thromboembolic Events [2]: 5%
gastrointestinal perforations [2]: 0.3-3.0%
ovarian failure [2]: 34%
proteinuria [2]: 20%

O=C1[O][Pt]2([NH][C@@H]3CCCC[C@H]3[NH]2)[O]C1=O [Oxaliplatin]
half-life [3]: about 14 minutes

FC(F)(F)C(F)(F)C(F)(F)C(F)(F)C(F)(F)C(F)(F)F [Perfluorohexane]
water solubility, times lower than octafluoropropane [4]: 704 times
water solubility, times lower than sulfur hexafluoride [4]: 1,000 times

Reference: US12714676B2, “Compositions and methods for targeted delivery of therapeutics using carriers” (VESSELON, INC., priority 2020, dated 2026)
